Source: PMC7617670, “Activity Regulation of a Glutamine Amidotransferase Bienzyme Complex by Substrate-Induced Subunit Interface Expansion” (ACS catalysis, 2025)

T1: PabA, glutaminase subunit of aminodeoxychorismate synthase (ADCS) from Escherichia coli, wild type (Escherichia coli, UniProt P00903 1-187)
T1 sequence: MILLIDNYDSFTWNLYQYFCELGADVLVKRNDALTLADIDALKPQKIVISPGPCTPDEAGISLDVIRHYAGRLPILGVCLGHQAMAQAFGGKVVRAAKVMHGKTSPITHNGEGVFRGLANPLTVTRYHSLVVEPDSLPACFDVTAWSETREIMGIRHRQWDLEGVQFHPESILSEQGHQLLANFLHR

B1: PabB, synthase subunit of aminodeoxychorismate synthase (ADCS) from Escherichia coli, wild type (enzyme)
chain: MKTLSPAVITLLWRQDAAEFYFSRLSHLPWAMLLHSGYADHPYSRFDIVVAEPICTLTTFGKETVVSESEKRTTTTDDPLQVLQQVLDRADIRPTHNEDLPFQGGALGLFGYDLGRRFESLPEIAEQDIVLPDMAVGIYDWALIVDHQRHTVSLLSHNDVNARRAWLESQQFSPQEDFTLTSDWQSNMTREQYGEKFRQVQEYLHSGDCYQVNLAQRFHATYSGDEWQAFLQLNQANRAPFSAFLRLEQGAILSLSPERFILCDNSEIQTRPIKGTLPRLPDPQEDSKQAVKLANSAKDRAENLMIVDLMRNDIGRVAVAGSVKVPELFVVEPFPAVHHLVSTITAQLPEQLHASDLLRAAFPGGSITGAPKVRAMEIIDELEPQRRNAWCGSIGYLSFCGNMDTSITIRTLTAINGQIFCSAGGGIVADSQEEAEYQETFDKVNRILKQLEK
B2: PabA variant aR30E (enzyme, Escherichia coli)
chain: MILLIDNYDSFTWNLYQYFCELGADVLVKENDALTLADIDALKPQKIVISPGPCTPDEAGISLDVIRHYAGRLPILGVCLGHQAMAQAFGGKVVRAAKVMHGKTSPITHNGEGVFRGLANPLTVTRYHSLVVEPDSLPACFDVTAWSETREIMGIRHRQWDLEGVQFHPESILSEQGHQLLANFLHR
notes: PabA, glutaminase subunit of ADCS, E. coli; construct as m1 with one exchange; Made by QuikChange mutagenesis from the construct of m1; source: E. coli BL21-Gold (DE3), purified (Ni-IMAC, preparative gel filtration)

Experiments:
[1] = target: B2; test: cell-based or functional assay
[2] = target: T1, PabA, glutaminase subunit of …; test: cell-based or functional assay
[3] = target: B1; test: ITC; 250 μM PabB titrated into 25 μM PabA in the cell; 25 °C; 50 mM Tris/HCl pH 7.5, 50 mM KCl, 5 mM MgCl2; without Cho and Gln; one set of sites; details: both partners purified
[4] = target: B1; test: SEC; analytical SEC with 5 mM L-Gln in the buffer; PabA and PabB mixed equimolar, 50 μM each; Superdex 200 increase 10/300 GL; 50 mM Tris/HCl pH 7.5, 50 mM KCl, 5 mM MgCl2, 2 mM DTT; 25 °C; without Cho; details: both partners purified

Binder | glutaminase catalytic efficiency kcat/KM^Gln (coupled GDH assay, 200 μM Cho, PabB in fourfold excess) [2] [M⁻¹ s⁻¹] | Kd [3] [nM] | further results
B1 | 1090 |  | glutaminase catalytic efficiency kcat/KM^Gln (coupled GDH assay, 200 μM Cho, PabB in fourfold excess) [1]: 79 M⁻¹ s⁻¹
PabA variant aH128A (enzyme, Escherichia coli, PabA, glutaminase subunit of ADCS, E. coli; construct as m1 with one exchange; Made by QuikChange mutagenesis from the construct of m1; source: E. coli BL21-Gold (DE3), purified (Ni-IMAC, preparative gel filtration)) MILLIDNYDSFTWNLYQYFCELGADVLVKRNDALTLADIDALKPQKIVISPGPCTPDEAGISLDVIRHYAGRLPILGVCLGHQAMAQAFGGKVVRAAKVMHGKTSPITHNGEGVFRGLANPLTVTRYASLVVEPDSLPACFDVTAWSETREIMGIRHRQWDLEGVQFHPESILSEQGHQLLANFLHR |  | 370 | 
PabB variant bD308E (enzyme, Escherichia coli) MKTLSPAVITLLWRQDAAEFYFSRLSHLPWAMLLHSGYADHPYSRFDIVVAEPICTLTTFGKETVVSESEKRTTTTDDPLQVLQQVLDRADIRPTHNEDLPFQGGALGLFGYDLGRRFESLPEIAEQDIVLPDMAVGIYDWALIVDHQRHTVSLLSHNDVNARRAWLESQQFSPQEDFTLTSDWQSNMTREQYGEKFRQVQEYLHSGDCYQVNLAQRFHATYSGDEWQAFLQLNQANRAPFSAFLRLEQGAILSLSPERFILCDNSEIQTRPIKGTLPRLPDPQEDSKQAVKLANSAKDRAENLMIVELMRNDIGRVAVAGSVKVPELFVVEPFPAVHHLVSTITAQLPEQLHASDLLRAAFPGGSITGAPKVRAMEIIDELEPQRRNAWCGSIGYLSFCGNMDTSITIRTLTAINGQIFCSAGGGIVADSQEEAEYQETFDKVNRILKQLEK | 1540 |  | 
PabB variant bD308N (enzyme, Escherichia coli) MKTLSPAVITLLWRQDAAEFYFSRLSHLPWAMLLHSGYADHPYSRFDIVVAEPICTLTTFGKETVVSESEKRTTTTDDPLQVLQQVLDRADIRPTHNEDLPFQGGALGLFGYDLGRRFESLPEIAEQDIVLPDMAVGIYDWALIVDHQRHTVSLLSHNDVNARRAWLESQQFSPQEDFTLTSDWQSNMTREQYGEKFRQVQEYLHSGDCYQVNLAQRFHATYSGDEWQAFLQLNQANRAPFSAFLRLEQGAILSLSPERFILCDNSEIQTRPIKGTLPRLPDPQEDSKQAVKLANSAKDRAENLMIVNLMRNDIGRVAVAGSVKVPELFVVEPFPAVHHLVSTITAQLPEQLHASDLLRAAFPGGSITGAPKVRAMEIIDELEPQRRNAWCGSIGYLSFCGNMDTSITIRTLTAINGQIFCSAGGGIVADSQEEAEYQETFDKVNRILKQLEK | 36 |  | 
PabA variant aC54G (enzyme, Escherichia coli, PabA, glutaminase subunit of ADCS, E. coli; construct as m1 with one exchange; Made by QuikChange mutagenesis from the construct of m1; source: E. coli BL21-Gold (DE3), purified (Ni-IMAC, preparative gel filtration)) MILLIDNYDSFTWNLYQYFCELGADVLVKRNDALTLADIDALKPQKIVISPGPGTPDEAGISLDVIRHYAGRLPILGVCLGHQAMAQAFGGKVVRAAKVMHGKTSPITHNGEGVFRGLANPLTVTRYHSLVVEPDSLPACFDVTAWSETREIMGIRHRQWDLEGVQFHPESILSEQGHQLLANFLHR |  | 60 | 
PabB variant bE119R (enzyme, Escherichia coli) MKTLSPAVITLLWRQDAAEFYFSRLSHLPWAMLLHSGYADHPYSRFDIVVAEPICTLTTFGKETVVSESEKRTTTTDDPLQVLQQVLDRADIRPTHNEDLPFQGGALGLFGYDLGRRFRSLPEIAEQDIVLPDMAVGIYDWALIVDHQRHTVSLLSHNDVNARRAWLESQQFSPQEDFTLTSDWQSNMTREQYGEKFRQVQEYLHSGDCYQVNLAQRFHATYSGDEWQAFLQLNQANRAPFSAFLRLEQGAILSLSPERFILCDNSEIQTRPIKGTLPRLPDPQEDSKQAVKLANSAKDRAENLMIVDLMRNDIGRVAVAGSVKVPELFVVEPFPAVHHLVSTITAQLPEQLHASDLLRAAFPGGSITGAPKVRAMEIIDELEPQRRNAWCGSIGYLSFCGNMDTSITIRTLTAINGQIFCSAGGGIVADSQEEAEYQETFDKVNRILKQLEK | 60 |  | 
PabA variant aC54A (enzyme, Escherichia coli, PabA, glutaminase subunit of ADCS, E. coli; construct as m1 with one exchange; Made by QuikChange mutagenesis from the construct of m1; source: E. coli BL21-Gold (DE3), purified (Ni-IMAC, preparative gel filtration)) MILLIDNYDSFTWNLYQYFCELGADVLVKRNDALTLADIDALKPQKIVISPGPATPDEAGISLDVIRHYAGRLPILGVCLGHQAMAQAFGGKVVRAAKVMHGKTSPITHNGEGVFRGLANPLTVTRYHSLVVEPDSLPACFDVTAWSETREIMGIRHRQWDLEGVQFHPESILSEQGHQLLANFLHR |  | 180 | 
PabB variant bR311A (enzyme, Escherichia coli) MKTLSPAVITLLWRQDAAEFYFSRLSHLPWAMLLHSGYADHPYSRFDIVVAEPICTLTTFGKETVVSESEKRTTTTDDPLQVLQQVLDRADIRPTHNEDLPFQGGALGLFGYDLGRRFESLPEIAEQDIVLPDMAVGIYDWALIVDHQRHTVSLLSHNDVNARRAWLESQQFSPQEDFTLTSDWQSNMTREQYGEKFRQVQEYLHSGDCYQVNLAQRFHATYSGDEWQAFLQLNQANRAPFSAFLRLEQGAILSLSPERFILCDNSEIQTRPIKGTLPRLPDPQEDSKQAVKLANSAKDRAENLMIVDLMANDIGRVAVAGSVKVPELFVVEPFPAVHHLVSTITAQLPEQLHASDLLRAAFPGGSITGAPKVRAMEIIDELEPQRRNAWCGSIGYLSFCGNMDTSITIRTLTAINGQIFCSAGGGIVADSQEEAEYQETFDKVNRILKQLEK | 100 |  | 
PabA variant aS171A (enzyme, Escherichia coli, PabA, glutaminase subunit of ADCS, E. coli; construct as m1 with one exchange; Made by QuikChange mutagenesis from the construct of m1; source: E. coli BL21-Gold (DE3), purified (Ni-IMAC, preparative gel filtration)) MILLIDNYDSFTWNLYQYFCELGADVLVKRNDALTLADIDALKPQKIVISPGPCTPDEAGISLDVIRHYAGRLPILGVCLGHQAMAQAFGGKVVRAAKVMHGKTSPITHNGEGVFRGLANPLTVTRYHSLVVEPDSLPACFDVTAWSETREIMGIRHRQWDLEGVQFHPEAILSEQGHQLLANFLHR |  | 920 | 
PabA double variant [Y127A, S171A] (enzyme, Escherichia coli, PabA, glutaminase subunit of ADCS, E. coli; construct as m1 with two exchanges; Made by mutagenesis from the construct of m1; source: E. coli BL21-Gold (DE3), purified (Ni-IMAC, preparative gel filtration)) MILLIDNYDSFTWNLYQYFCELGADVLVKRNDALTLADIDALKPQKIVISPGPCTPDEAGISLDVIRHYAGRLPILGVCLGHQAMAQAFGGKVVRAAKVMHGKTSPITHNGEGVFRGLANPLTVTRAHSLVVEPDSLPACFDVTAWSETREIMGIRHRQWDLEGVQFHPEAILSEQGHQLLANFLHR |  |  | binding result [4]: binds
B2 |  | 380 | 
PabA variant aP53A (enzyme, Escherichia coli, PabA, glutaminase subunit of ADCS, E. coli; construct as m1 with one exchange; Made by QuikChange mutagenesis from the construct of m1; source: E. coli BL21-Gold (DE3), purified (Ni-IMAC, preparative gel filtration)) MILLIDNYDSFTWNLYQYFCELGADVLVKRNDALTLADIDALKPQKIVISPGACTPDEAGISLDVIRHYAGRLPILGVCLGHQAMAQAFGGKVVRAAKVMHGKTSPITHNGEGVFRGLANPLTVTRYHSLVVEPDSLPACFDVTAWSETREIMGIRHRQWDLEGVQFHPESILSEQGHQLLANFLHR |  | 180 | 
PabB variant bD308A (enzyme, Escherichia coli) MKTLSPAVITLLWRQDAAEFYFSRLSHLPWAMLLHSGYADHPYSRFDIVVAEPICTLTTFGKETVVSESEKRTTTTDDPLQVLQQVLDRADIRPTHNEDLPFQGGALGLFGYDLGRRFESLPEIAEQDIVLPDMAVGIYDWALIVDHQRHTVSLLSHNDVNARRAWLESQQFSPQEDFTLTSDWQSNMTREQYGEKFRQVQEYLHSGDCYQVNLAQRFHATYSGDEWQAFLQLNQANRAPFSAFLRLEQGAILSLSPERFILCDNSEIQTRPIKGTLPRLPDPQEDSKQAVKLANSAKDRAENLMIVALMRNDIGRVAVAGSVKVPELFVVEPFPAVHHLVSTITAQLPEQLHASDLLRAAFPGGSITGAPKVRAMEIIDELEPQRRNAWCGSIGYLSFCGNMDTSITIRTLTAINGQIFCSAGGGIVADSQEEAEYQETFDKVNRILKQLEK | 13 |  | 
